In data set [1] the target is T1, L-PGDS mutant Cys^89,186Ala (Mus musculus, UniProt O09114, C186A/C89A).
T1 construct: GST (N, cleaved yes); made in house; host or cells: Escherichia coli DH5α
T1 sequence (O09114 25-189 C89A/C186A): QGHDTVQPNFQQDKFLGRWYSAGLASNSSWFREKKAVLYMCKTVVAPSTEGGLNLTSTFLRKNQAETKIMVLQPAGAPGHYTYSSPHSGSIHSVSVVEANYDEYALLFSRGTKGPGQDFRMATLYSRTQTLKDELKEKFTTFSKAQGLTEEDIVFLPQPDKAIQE
The experiment in a line: Binding of prostaglandins to L-PGDS by surface plasmon resonance (BiaCore 2000). The following applies: for binding to L-PGDS (in words): 10 µM (Figure 7). On the procedure:
L-PGDS can act as a PGD2 transporter protein. […] That is, L-PGDS act as a PGD2 synthesis enzyme coupled with COX in cells and thereafter as an extracellular transporter of PGD2.
The binding of PGD2, PGE2 or PGF2α to L-PGDS was analyzed with BiaCore 2000 system (BiaCore, Uppsala, Sweden) using the surface plasmon resonance method. L-PGDS mutant Cys^89,186Ala was immobilized on CM5 sensor chip (BIAcore AB) coated with carboxymethyldextran. Binding assay was carried out at a constant flow rate of 30µ l/min. in the concentration range of 0.1 to 10 µ M in both the binding phase and the dissociation phase. After each assay, the sensor chip surface was regenerated with 15 µ l of 1.5 M urea. Rate constant values were calculated using analysis soft wear BIA Evaluation 3.0 soft wear after subtracting control surface (bovine serum albumin) using Langmuir 1: 1 binding model by four independent experiments.
(SPR reads the build-up and loss of mass on a sensor chip optically.)

For another data set, the target named is H-PGDS (Homo sapiens, UniProt O60760). The data set is described as follows: Affinity of H-PGDS to PGD2. It counts as binding.
Sequence of H-PGDS (O60760 whole entry, species assumed): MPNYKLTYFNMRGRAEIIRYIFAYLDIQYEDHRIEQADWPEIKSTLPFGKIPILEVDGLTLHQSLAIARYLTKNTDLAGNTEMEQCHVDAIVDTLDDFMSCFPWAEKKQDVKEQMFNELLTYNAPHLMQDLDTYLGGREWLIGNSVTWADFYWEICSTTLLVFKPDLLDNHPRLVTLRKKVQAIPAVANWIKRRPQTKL
In data set [2] the target is hematopoietic PGD Synthase (H-PGDS) (Homo sapiens, UniProt O60760). The data set is described as follows: Inhibition of hematopoietic PGD synthase enzyme activity ([1-14C]PGH2 to PGD2, thin layer chromatography). The format is biochemical. The following applies: 3 to 300 µM; PGH2 40 µM, 0.1 mM GSH, 25°C, 30 seconds. The protocol:
In the measurement of hematopoietic PGD Synthase (H-PGDS), [1-^14C] PGH2 (40µM) as substrate is reacted in the presence of 0.1 M Tris-HCl (pH 8.0) and 0.1 mM GSH (reduced glutathione) at 25°C for 30 seconds.
After the completion of the reaction, the reaction liquid was subjected to thin layer chromatography to isolate and quantify PGD2 to calculate enzyme activity.

For data set [3], the system named is human cerebellum medulloblast (TE671) expressing L-PGDS. The data set is described as follows: Inhibition of A23187-stimulated PGD2 production from cells expressing L-PGDS (EIA). The format is cell-based. Conditions: TE-671 cells, A23187 5 µM, compound added 15 minutes before stimulation, medium recovered 15 minutes after. On the procedure:
TE-671 is seeded on microplate at the density of 1×10^7. The cells were stimulated by A231875 (5 µ M) to cause PGD2 production. […] The culture medium was recovered 15 minutes after A23187 stimulation to quantify the PGD2 concentration in the culture medium by enzyme immunoassay (EIA).

For another data set, the target named is T2, L-PGDS (Mus musculus, UniProt O09114).
T2 sequence (O09114 25-189): T1 sequence (O09114 25-189 C89A/C186A) with A65C, A162C
The experiment in a line: Binding of retinoids to L-PGDS.

Substrate in data set [4]: [H][C@]12C[C@]([H])(OO1)[C@H](C/C=C\CCCC(=O)O)[C@H]2/C=C/[C@@H](O)CCCCC
The experiment in a line: PGDS activity kinetics of L-PGDS mutants. The following applies: other: Km for PGH2, pH=8.0, 25.0 °C. The format is biochemical, mouse. The source says:
Since the preparation of recombinant protein having the same PGDS activity as purified wild-type enzyme is easy, Cys^89,186Ala construct was used for this purpose. Various mutants were expressed, purified to homogeneity and L-PGDS activities were compared at pH 8, 9 and 10 (Figure 8) .
After a candidate compound of L-PGDS inhibitor is selected, it is preferably contacted with the enzyme in the presence of the substrate (prostaglandin H2) to confirm an ability of the compound to inhibit the enzyme (see, for example, Shimizu, t., Yamamoto, S., and Hayaishi O. (1979), Purification and Properties of prostaglandin D synthase from rat brain, J. Biol. Chem., 254:5222-5228). The enzyme activity can be measured, for example, as follows:
The substrate [1-^14C]prostaglandin (PG)H2 is synthesized by reacting [1^-14C]arachidonic acid with cyclooxygenase. Since PGH2 is easily decomposed in an aqueous solution (half life: about 5 minutes), it is evaporated to dryness and stored at low temperature(-80°C). The enzyme reaction is performed by injecting 1 µL of PGH2 solution(acetone or non-volatile diethylenediglycohol solution) with a microsyringe to 49 µ L of 0.1 M phosphate buffer (pH8.0) containing 1 mM dithiothreitol (DTT) and the enzyme. After the reaction at 25 °C for 30 to 60 seconds, the reaction is quenched by the addition of 300 µL of ice-cold mixed solution of ether/methanol/0.1 M citric acid (30:4:1 v/v/v) followed by extraction the substrate and reaction product under acidic condition into ether layer. Subsequently, anhydrous sodium sulfate was added to dehydrate it. An aliquot of organic layer (about 50 µ L) is coated on silica gel thin layer in a low temperature room (4°C) and subjected to silica gel thin layer chromatography in a freezer (-20 °C) (developing solvent: ether/methanol/acetic acid (90:2:1 v/v/v) . After the development, radioactivity of PGD2 fraction and fraction other than it are measured to calculate an enzyme activity based on the conversion ratio to PGD2.
The site-specific mutagenesis was performed using a Quick change site-directed mutagenesis kit (Stratgene, Heiderberg, Germany). The DNA sequence was confirmed by the determination of cycle sequencing by a SequiTherm cycle sequencing kit (Epicentre Technologies, Madison, WI) followed by LI-COR model 4000L automatic DNA sequencer (LI-COR Inc., Lincoln, NE)

Numbering of substitutions follows the chain as printed. In names and notes the source's numbering stands.

Usually Kd stands for the constant that tells how readily two partners part at equilibrium. For orientation: Km means the substrate concentration at which the rate is half of its maximum.

Sequence of hematopoietic PGD Synthase (H-PGDS) (O60760 whole entry, species assumed): as above

As for `CCCCC[C@H](O)/C=C/[C@H]1C(=O)C[C@H](O)[C@@H]1C/C=C\CCCC(=O)O` [PGD2], the kon in data set [1] (Langmuir 1:1 binding model) was 1.24x10^3 ± 37 M^-1sec^-1. Further, the Kd in data set [1] (Langmuir 1:1 binding model, four independent experiments) is 89.4 ± 3.4 nM. Besides, the “affinity of H-PGDS to PGD2 (in words)” value at H-PGDS is “does not show high affinity”.
Regarding `CCCCC[C@H](O)/C=C/[C@H]1[C@H](O)CC(=O)[C@@H]1C/C=C\CCCC(=O)O` [PGE2], in data set [1], the “binding to L-PGDS (in words)” value is reported as “Neither PGE2 nor PGF2α is bound”.
As to `CCCCC[C@H](O)/C=C/[C@@H]1[C@@H](C/C=C\CCCC(=O)O)[C@@H](O)C[C@H]1O` [PGF2α], the “binding to L-PGDS (in words)” value in data set [1] is reported as “Neither PGE2 nor PGF2α is bound”.
Turning to `C1=Cc2ccccc2C(=C2CCN(CCCCc3nn[nH]n3)CC2)c2ccccc21` [AT-56, 4-dibenzo(a,d)cyclohepten-5-ylidene-1-(4-(2H-tetrazole-5-yl)butyl)piperidine], the “inhibition of H-PGDS (in words)” value in data set [2] is given as “does not inhibit”. In addition, the “inhibition of PGD2 production by A23187 stimulation (in words)” value in data set [3] is given as “dose-dependently inhibited”.
Regarding `CC1=C(/C=C/C(C)=C/C=C/C(C)=C/C=O)C(C)(C)CCC1` [retinal], the “binding to L-PGDS (in words)” value at L-PGDS is reported as “binds”.

B1: mouse L-PGDS, Wild Type(C65), Cys^89,186Ala construct, SEQ ID NO:1 (Mus musculus; C186A/C89A) (protein)
chain: T1 sequence (O09114 25-189 C89A/C186A)
Regarding B1, in data set [4], the Km stood at 13 µM and the kcat/Km is reported as 2.38 µM^-1Min^-1.

B2: mouse L-PGDS mutant F83I (Phe^83Ile) in Cys^89,186Ala construct (Mus musculus; C186A/C89A/F83I) (protein)
chain: T1 sequence (O09114 25-189 C89A/C186A) with F59I
Take B2: in data set [4], the Km is 15 µM and the kcat/Km came out at 4.47 µM^-1Min^-1.

B3: mouse L-PGDS mutant S81A (Ser^81Ala) in Cys^89,186Ala construct (Mus musculus; C186A/C89A/S81A) (protein)
chain: T1 sequence (O09114 25-189 C89A/C186A) with S57A
Take B3: in data set [4], the Km amounted to 12 µM and the kcat/Km came to 0.50 µM^-1Min^-1.

B4: mouse L-PGDS mutant K92E (Lys^92Glu) in Cys^89,186Ala construct (Mus musculus; C186A/C89A/K92E) (protein)
chain: T1 sequence (O09114 25-189 C89A/C186A) with K68E
For B4, in data set [4], the Michaelis constant (Km) came to 14 µM and the kcat/Km came out at 5.71 µM^-1Min^-1.

B5: mouse L-PGDS mutant S45A (Ser^45Ala) in Cys^89,186Ala construct (Mus musculus; C186A/C89A/S45A) (protein)
chain: T1 sequence (O09114 25-189 C89A/C186A) with S21A
As to B5, the Km in data set [4] is 11 µM.

B6: mouse L-PGDS mutant T147A (Thr^147Ala) in Cys^89,186Ala construct (Mus musculus; C186A/C89A/T147A) (protein)
chain: T1 sequence (O09114 25-189 C89A/C186A) with T123A
For B6, in data set [4], the Km came out at 19 µM and the kcat/Km was 0.95 µM^-1Min^-1.

B7: mouse L-PGDS mutant R85E (Arg^85Glu) in Cys^89,186Ala construct (Mus musculus; C186A/C89A/R85E) (protein)
chain: T1 sequence (O09114 25-189 C89A/C186A) with R61E
For B7, in data set [4], the Km is given as 7 µM and the kcat/Km is on record as 4.86 µM^-1Min^-1.

Values taken from patent EP1574569A1, “THREE-DIMENSIONAL STRUCTURE OF LIPOCALIN-TYPE PROSTAGLANDIN D SYNTHASE AND UTILIZATION OF THE SAME” (RIKEN, priority 2002, dated 2004).
